Reference: patent US9707290
Substitutions are numbered along the chain they refer to.

B1: 4E10_T117 (designed binder)
chain: HHHHHHNAMQGIHFRRHYVRHLPKEVSQNDIIKALASPLINDGMVVSDFADHVITREQNFPTGLPVEPVGVAIPHTDSKYVRQNAISVGILAEPVNFEDAGGEPDPVPVRVVFMLALGNWFDITNVLWWIMDVIQDEDFMQQLLVMNDDEIYQSIYTRISE
B2: 4E10_T298 (designed binder)
chain: GHHHHHHGSEVSQNDIIKALASPLINDGMVVSDFADHVITREQNAPTGLPVEPVGVAIPHTDSKYVRQNAISVGILAEPVNFEDAGGEPDPVPVRVVFMLALGNWFDITNVLWWIMDVIQDADFMQQLLVMNDDEIYQSIYTRISEAAGMAGIHFRRHYVRHLPLEHHHHHH
B3: 10E8_T93v2RT12-1 (designed binder)
chain: GKADEVREKARRRMEQAVEEFKRRLRQFEEKVKQKEPRDDEINRWIDIVKKKADEAKKRVEEVGDQAADEAAQLGNDPNVNWFDITNVLWDVKKLTEKAINDIDDALKKMKDWLESGLEHHHHHH
B4: 10E8_T93v2RT12-3 (designed binder)
chain: B3 chain with N81S, D84N, T86S, K93R
B5: 10E8_T93v2RT12-4 (designed binder)
chain: B3 chain with T86S, N87R
B6: 10E8_T93v2RT12-5 (designed binder)
chain: B3 chain with N87Q
B7: 10E8_T117v2-1 (designed binder)
chain: NAMQGIHFRRHYVRHLPKEVSQNDIIKALASPLINDGMVVSDFADHVITREQNFPTGLPVEPVGVAIPHTDSKYVRQNAISVGILAEPVNFEDAGGEPDPVPVRVVFMLALGNWFDITNVLWWIKAVIQDEDFMQQLLVMNDDEIYQSIYTRISELEHHHHHH
B8: 10E8_T117v2-2 (designed binder)
chain: B7 chain with D116S, N119K
B9: 10E8_T117v2-4 (designed binder)
chain: B7 chain with T118S, N119R
B10: 10E8_T117v2-5 (designed binder)
chain: B7 chain with N119Q
B11: 10E8_T117v2-3 (designed binder)
chain: B7 chain with N113S, D116N, T118S, K125R
B12: 10E8_T117v2-1_g28_g91012 (designed binder)
chain: NAMQGIHFRRHYVRHLPKNVSQNDIIKALASPLINDGMVVSDFADHVITRENNSPTGLPVEPVGVAIPHTDSKYVNQSAISVGILAEPVNFEDANGTPDPVPVRVVFMLALGNWFDITNVLWWIKAVIQDEDFMQQLLNMSDDEIYQSIYTRISE
modifications: added N-linked glycosylation sites (glycan-masked)
B13: 10E8_T117v2-1_RSF1 (designed binder)
chain: NAMAGIVFRKHYVRHLGKTVTQNEIIRALAAPLISDGMVVKDFADHVIKREEQNPTGLPVQPVGVAIPHTDSKYVYYNAISVGILQEPVAFEDAGGDGRPVPVRVVFMLALGNWFDITNVLWWIKAVIQDDEFMKRLLYMTDDKIYESIRKRIYDLE
B14: 10E8_T298v2 (designed binder)
chain: GSEVSQNDIIKALASPLINDGMVVSDFADHVITREQNAPTGLPVEPVGVAIPHTDSKYVRQNAISVGILAEPVNFEDAGGEPDPVPVRVVFMLALGNWFDITNVLWWIKAVIQDADFMQQLLRMNDDEIYQSIYTRISEAAGMAGIHFRRHYVRHLGLEHHHHHH

These binders were tested against 10E8 antibody (assay: SPR; reference 10E8_T117v2).

With B1 the factor weaker than the corresponding 10E8 scaffold was 30 fold.

Each binder was assayed against 10E8 antibody (assay: SPR; reference 10E8_T298v2).

B2 showed a factor weaker than the corresponding 10E8 scaffold of 30 fold.

These binders were tested against 10E8 antibody (assay: SPR).

Going from B3 to B4, the Kd rises from 0.04 nM to 0.11 nM (2.8-fold). The first binds more tightly here.

Compared with B5, B6 is 120-fold lower in Kd: 2.7 nM for the first, 0.022 nM for the second. The second binds more tightly here.

Compared with B7, B8 is 16-fold higher in Kd: 0.082 nM for the first, 1.3 nM for the second. The first binds more tightly here.

First: B9
Second: B10
The Kd of the first is 3.8-fold higher: 0.59 nM for the first, 0.155 nM for the second. The second binds more tightly here.

Compared with B11, B12 is 5.1-fold lower in Kd: 0.925 nM for the first, 0.18 nM for the second.

B13 was tested, and the Kd was 0.05 nM.

What follows are binders tested against 4E10 antibody (assay: SPR).

Going from B3 to B4, the Kd rises from 0.018 nM to 0.58 nM (32-fold). The first binds more tightly here.

Going from B7 to B8, the Kd falls from 0.168 nM to 0.0538 nM (3.1-fold). The second binds more tightly here.

Going from B9 to B11, the Kd falls from 3.9 nM to 0.526 nM (7.4-fold).

First: B12
Second: B13
The Kd of the first is 4.9-fold higher: 0.49 nM for the first, 0.1 nM for the second. The second binds more tightly here.

The binders below were run against germline 10E8 (predicted germline precursor to 10E8) (assay: SPR).

First: B3
Second: B7
The Kd of the first is higher: 290000 to 720000 nM for the first, 6000 nM for the second.

B9 and B11 are the same in Kd: 8000 nM for the first, 8000 nM for the second.

What follows are binders tested against germline 4E10 (assay: SPR).

Going from B7 to B9, the Kd rises from 0.187 nM to 3.2 nM (17-fold).

First: B12
Second: B13
The Kd of the first is 5-fold higher: 0.5 nM for the first, 0.1 nM for the second.

Target: 10E8 antibody
Assay: SPR
Remark: another data set of the same source

B2 and B1 are the same in Kd: 3 nM for the first, 3 nM for the second.

Target: germline 10E8 (predicted germline precursor to 10E8)
Assay: SPR
Remark: another data set of the same source

Compared with B14, B7 is 3.5-fold lower in Kd: 105000 nM for the first, 30000 nM for the second. The second binds more tightly here.

What follows are binders tested against 10E8 antibody (assay: SPR, antibody on the sensor).

Going from B14 to B7, the Kd falls from 0.172 nM to 0.091 nM (1.9-fold).
